B1: Hedgehog-interacting protein (Homo sapiens), Q96QV1-1 (parent)
chain: MLKMLSFKLLLLAVALGFFEGDAKFGERNEGSGARRRRCLNGNPPKRLKRRDRRMMSQLELLSGGEMLCGGFYPRLSCCLRSDSPGLGRLENKIFSVTNNTECGKLLEEIKCALCSPHSQSLFHSPEREVLERDLVLPLLCKDYCKEFFYTCRGHIPGFLQTTADEFCFYYARKDGGLCFPDFPRKQVRGPASNYLDQMEEYDKVEEISRKHKHNCFCIQEVVSGLRQPVGALHSGDGSQRLFILEKEGYVKILTPEGEIFKEPYLDIHKLVQSGIKGGDERGLLSLAFHPNYKKNGKLYVSYTTNQERWAIGPHDHILRVVEYTVSRKNPHQVDLRTARVFLEVAELHRKHLGGQLLFGPDGFLYIILGDGMITLDDMEEMDGLSDFTGSVLRLDVDTDMCNVPYSIPRSNPHFNSTNQPPEVFAHGLHDPGRCAVDRHPTDININLTILCSDSNGKNRSSARILQIIKGKDYESEPSLLEFKPFSNGPLVGGFVYRGCQSERLYGSYVFGDRNGNFLTLQQSPVTKQWQEKPLCLGTSGSCRGYFSGHILGFGEDELGEVYILSSSKSMTQTHNGKLYKIVDPKRPLMPEECRATVQPAQTLTSECSRLCRNGYCTPTGKCCCSPGWEGDFCRTAKCEPACRHGGVCVRPNKCLCKKGYLGPQCEQVDRNIRRVTRAGILDQIIDMTSYLLDLTSYIV

Variants of: B1
Settings: with shh_mouse Shh

effect of a mutation on the interaction	Variant
disrupting interaction strength	D383R
disrupting interaction strength	D383A
